Experimental findings from publication PMC3102279 are described below.

Substrate in series [1]: Nc1ncnc2c1ncn2[C@@H]1O[C@H](COP(=O)(O)OP(=O)(O)OP(=O)(O)O)[C@@H](O)[C@H]1O
Nature of the series: purified protein. The settings on record: Mg2+.

Substrate in series [2]: Nc1ncnc2c1ncn2[C@@H]1O[C@H](COP(=O)(O)OP(=O)(O)OP(=O)(O)O)[C@@H](O)[C@H]1O
In words: purified protein. It counts as biochemical, Homo sapiens. As to conditions: Mg2+.

B1: Aurora B (Homo sapiens) (protein)
chain: SNVQPTAAPGQKVMENSSGTPDILTRHFTIDDFEIGRPLGKGKFGNVYLAREKKSHFIVALKVLFKSQIEKEGVEHQLRREIEIQAHLHHPNILRLYNYFYDRRRIYLILEYAPRGELYKELQKSCTFDEQRTATIMEELADALMYCHGKKVIHRDIKPENLLLGLKGELKIADFGWSVHAPSLRRKTMCGTLDYLPPEMIEGRMHNEKVDLWCIGVLCYELLVGNPPFESASHNETYRRIVKVDLKFPASVPMGAQDLISKLLRHNPSERLPLAQVSAHPWVRANSRRVLPPSALQSVA
For B1, the Michaelis-Menten constant (Km) in series [1] came out at 16.5 µM.

B2: Mps1 (Homo sapiens) (protein)
chain: MESEDLSGRELTIDSIMNKVRDIKNKFKNEDLTDELSLNKISADTTDNSGTVNQIMMMANNPEDWLSLLLKLEKNSVPLSDALLNKLIGRYSQAIEALPPDKYGQNESFARIQVRFAELKAIQEPDDARDYFQMARANCKKFAFVHISFAQFELSQGNVKKSKQLLQKAVERGAVPLEMLEIALRNLNLQKKQLLSEEEKKNLSASTVLTAQESFSGSLGHLQNRNNSCDSRGQTTKARFLYGENMPPQDAEIGYRNSLRQTNKTKQSCPFGRVPVNLLNSPDCDVKTDDSVVPCFMKRQTSRSECRDLVVPGSKPSGNDSCELRNLKSVQNSHFKEPLVSDEKSSELIITDSITLKNKTESSLLAKLEETKEYQEPEVPESNQKQWQSKRKSECINQNPAASSNHWQIPELARKVNTEQKHTTFEQPVFSVSKQSPPISTSKWFDPKSICKTPSSNTLDDYMSCFRTPVVKNDFPPACQLSTPYGQPACFQQQQHQILATPLQNLQVLASSSANECISVKGRIYSILKQIGSGGSSKVFQVLNEKKQIYAIKYVNLEEADNQTLDSYRNEIAYLNKLQQHSDKIIRLYDYEITDQYIYMVMECGNIDLNSWLKKKKSIDPWERKSYWKNMLEAVHTIHQHGIVHSDLKPANFLIVDGMLKLIDFGIANQMQPDTTSVVKDSQVGTVNYMPPEAIKDMSSSRENGKSKSKISPKSDVWSLGCILYYMTYGKTPFQQIINQISKLHAIIDPNHEIEFPDIPEKDLQDVLKCCLKRDPKQRISIPELLAHPYVQIQTHPVNQMAKGTTEEMKYVLGQLVGLNSPNSILKAAKTLYEHYSGGESHNSSSSKTFEKKRGKK
Turning to B2, in series [2], the Km was determined as 4.9 µM.
